For experiment [1], the target named is T1, 6×His-tagged human LILRB2 ECD recombinant protein (human, UniProt Q8N423 22-458, limits assumed).
T1 construct: Bought protein; not shown: 6×His-tag
As to the kind of experiment: Octet, 1:1 model; column printed as 'ka (1/Ms)', heads of c4 and c5 are swapped.

Experiment [2] addresses T2, Human LILRB2 stably expressed on EL4 cells (EL4/LILRB2) (human, UniProt Q8N423 22-597).
T2 construct: also called EL4-LILRB2 cells; cell membrane human LILRB2
As to the kind of experiment: competitive FACS on EL4/LILRB2 cells, blockade of HLA-A2 binding.
Method: The blocking activities were determined by quantitating the blockade of the ligands binding to EL4/LILRB2 cells.

Experiment [3] concerns the target T1, 6×His-tagged human LILRB2 ECD …. Nature of the experiment: Octet, 1:1 model. On the technique in general: Biolayer interferometry detects binding as a change in optical thickness at a sensor tip.

These results are taken from patent US20260008847A1 (ELPISCIENCE SUZHOU BIOPHARMA, published 2026).

T1 sequence (Q8N423 22-458 limits assumed): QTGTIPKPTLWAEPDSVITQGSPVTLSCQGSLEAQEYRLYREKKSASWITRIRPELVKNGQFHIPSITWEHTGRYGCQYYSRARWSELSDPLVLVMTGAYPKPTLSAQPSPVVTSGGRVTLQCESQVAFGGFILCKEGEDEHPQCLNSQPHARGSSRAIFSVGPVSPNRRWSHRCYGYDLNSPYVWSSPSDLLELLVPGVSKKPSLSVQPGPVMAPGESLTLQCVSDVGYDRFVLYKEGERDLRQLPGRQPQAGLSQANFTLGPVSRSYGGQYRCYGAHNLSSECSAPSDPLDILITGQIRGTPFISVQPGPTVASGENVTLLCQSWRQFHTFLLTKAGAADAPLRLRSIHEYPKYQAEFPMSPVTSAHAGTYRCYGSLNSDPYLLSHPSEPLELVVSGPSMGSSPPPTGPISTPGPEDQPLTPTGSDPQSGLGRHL
T2 sequence (Q8N423 22-597 limits assumed): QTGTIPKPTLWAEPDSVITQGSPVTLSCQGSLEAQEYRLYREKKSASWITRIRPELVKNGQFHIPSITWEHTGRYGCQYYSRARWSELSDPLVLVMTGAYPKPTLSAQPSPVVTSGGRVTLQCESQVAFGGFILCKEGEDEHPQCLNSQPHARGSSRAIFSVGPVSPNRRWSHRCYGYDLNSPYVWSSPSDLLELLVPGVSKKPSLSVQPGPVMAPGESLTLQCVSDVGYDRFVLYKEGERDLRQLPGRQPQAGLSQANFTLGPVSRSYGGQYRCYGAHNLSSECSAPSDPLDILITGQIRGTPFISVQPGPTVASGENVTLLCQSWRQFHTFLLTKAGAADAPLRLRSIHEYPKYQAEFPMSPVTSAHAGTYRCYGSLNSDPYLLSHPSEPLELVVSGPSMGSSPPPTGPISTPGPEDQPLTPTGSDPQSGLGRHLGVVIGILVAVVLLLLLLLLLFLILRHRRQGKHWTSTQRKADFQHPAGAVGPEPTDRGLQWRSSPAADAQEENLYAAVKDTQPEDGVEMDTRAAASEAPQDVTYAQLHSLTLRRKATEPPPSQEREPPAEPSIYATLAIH

B1: 043c (antibody, V domains shown)
VH: QVQLQQSGAELAKPGASVKLSCKASGYTFTSYWMYWVKQRPGQGLEWIGHINPSSGYTKYNQKFKDKATLTADKSSSTAYMQLSSLTYEDSAVYYCARDPNWDNYWGQGTTLTVSS
VL: DIVMTQSHKFMSTSVGDRVSITCKASQDVSIAVAWYQQKPGQSPKLLIYSASYRYTGVPDRFTGSGSGTDFTFTISSVQAEDLAVYYCQQHYSTPYTFGGGTKLEIK
notes: Human IgG4 chimeric antibody with S228P mutation at the Fc region; also called chimeric antibody 043c; parental antibody 043c
Take B1: the koff (as a rule, the first-order rate constant of dissociation) in experiment [1] was 0.00119 s⁻¹. The IC50 (commonly the midpoint of a concentration-inhibition curve) in experiment [2] turned out to be 0.48 nM. For the same molecule, the Kd (usually the constant that tells how readily two partners part at equilibrium) in experiment [3] amounted to 2.4 nM.
